Reference: article PMC9400494
pKd: −log10 of the molar value.

Experiments:
Test in all cases: fluorescence polarization
[1] = tested on: nsp12 RdRP (SARS-CoV-2 (Wuhan-1 strain))
[2] = tested on: nsp7 (SARS-CoV-2 (Wuhan-1 strain))
[3] = tested on: nsp8 (SARS-CoV-2 (Wuhan-1 strain))
[4] = tested on: nsp8L7 (nsp8-GSGSGS-nsp7 fusion) (SARS-CoV-2 (Wuhan-1 strain))

FP primer-template RNA hairpin
pKd [1]: 6.70
pKd [2]: 5.15
pKd [3]: 6.70
pKd [4]: 6.70
